Numbering of substitutions follows the chain as printed.
How the values were obtained:
[1] = biological target: RutR AcK7/11 K7AcK;K11AcK (Escherichia coli K12?) (UniProt P0ACU2); experiment: SPR; conditions: ITC: 100 mM potassium phosphate pH 6.4, 150 mM NaCl, 5 mM MgCl2, 2 mM b-ME, 20 or 25 C; SPR: 100 mM potassium phosphate pH 6.4, 300 mM NaCl, 0.05% Tween20 …
[2] = biological target: RutR AcK21 K21AcK (Escherichia coli K12?) (UniProt P0ACU2); experiment: ITC; conditions: ITC: 100 mM potassium phosphate pH 6.4, 150 mM NaCl, 5 mM MgCl2, 2 mM b-ME, 20 or 25 C; SPR: 100 mM potassium phosphate pH 6.4, 300 mM NaCl, 0.05% Tween20 …
[3] = biological target: RutR AcK11 K11AcK (Escherichia coli K12?) (UniProt P0ACU2); experiment: ITC; conditions: ITC: 100 mM potassium phosphate pH 6.4, 150 mM NaCl, 5 mM MgCl2, 2 mM b-ME, 20 or 25 C; SPR: 100 mM potassium phosphate pH 6.4, 300 mM NaCl, 0.05% Tween20 …
Chain of RutR AcK11 K11AcK (Escherichia coli K12?) (P0ACU2 whole entry): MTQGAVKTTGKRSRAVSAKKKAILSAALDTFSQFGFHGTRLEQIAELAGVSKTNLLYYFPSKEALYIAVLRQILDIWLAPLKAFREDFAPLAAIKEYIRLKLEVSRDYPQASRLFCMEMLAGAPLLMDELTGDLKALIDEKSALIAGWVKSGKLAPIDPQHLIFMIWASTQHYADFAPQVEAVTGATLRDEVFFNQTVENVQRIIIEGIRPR

[4] = biological target: RutR AcK95 K95AcK (Escherichia coli K12?) (UniProt P0ACU2); experiment: ITC; conditions: ITC: 100 mM potassium phosphate pH 6.4, 150 mM NaCl, 5 mM MgCl2, 2 mM b-ME, 20 or 25 C; SPR: 100 mM potassium phosphate pH 6.4, 300 mM NaCl, 0.05% Tween20 …
[5] = biological target: RutR AcK7/11 K7AcK;K11AcK (Escherichia coli K12?) (UniProt P0ACU2); experiment: ITC; conditions: ITC: 100 mM potassium phosphate pH 6.4, 150 mM NaCl, 5 mM MgCl2, 2 mM b-ME, 20 or 25 C; SPR: 100 mM potassium phosphate pH 6.4, 300 mM NaCl, 0.05% Tween20 …
[6] = biological target: RutR AcK7 K7AcK (Escherichia coli K12?) (UniProt P0ACU2); experiment: ITC; conditions: ITC: 100 mM potassium phosphate pH 6.4, 150 mM NaCl, 5 mM MgCl2, 2 mM b-ME, 20 or 25 C; SPR: 100 mM potassium phosphate pH 6.4, 300 mM NaCl, 0.05% Tween20 …
Chain of RutR AcK7 K7AcK (Escherichia coli K12?) (P0ACU2 whole entry): as above

[7] = biological target: RutR AcK150 K150AcK (Escherichia coli K12?) (UniProt P0ACU2); experiment: ITC; conditions: ITC: 100 mM potassium phosphate pH 6.4, 150 mM NaCl, 5 mM MgCl2, 2 mM b-ME, 20 or 25 C; SPR: 100 mM potassium phosphate pH 6.4, 300 mM NaCl, 0.05% Tween20 …
[8] = biological target: RutR AcK7 K7AcK (Escherichia coli K12?) (UniProt P0ACU2); experiment: SPR; conditions: ITC: 100 mM potassium phosphate pH 6.4, 150 mM NaCl, 5 mM MgCl2, 2 mM b-ME, 20 or 25 C; SPR: 100 mM potassium phosphate pH 6.4, 300 mM NaCl, 0.05% Tween20 …
[9] = biological target: RutR AcK62 K62AcK (Escherichia coli K12?) (UniProt P0ACU2); experiment: ITC; conditions: ITC: 100 mM potassium phosphate pH 6.4, 150 mM NaCl, 5 mM MgCl2, 2 mM b-ME, 20 or 25 C; SPR: 100 mM potassium phosphate pH 6.4, 300 mM NaCl, 0.05% Tween20 …
Chain of RutR AcK62 K62AcK (Escherichia coli K12?) (P0ACU2 whole entry): as above

RutR Δ1-12 = biological target: T1, RutR Δ1-12 (UniProt P0ACU2 13-212, del1-12); experiment: EMSA; ITC: 100 mM potassium phosphate pH 6.4, 150 mM NaCl, 5 mM MgCl2, 2 mM b-ME, 20 or 25 C; SPR: 100 mM potassium phosphate pH 6.4, 300 mM NaCl, 0.05% Tween20, 25 C; EMSA: 20 mM Tris-HCl pH 7.5, 100 mM KCl, 2 mM DTT, 10% glycerol, 25 nM DNA, 30 C; conditions: protein: recombinant; tags: His6; chain copies: 2; blunt
T1 sequence: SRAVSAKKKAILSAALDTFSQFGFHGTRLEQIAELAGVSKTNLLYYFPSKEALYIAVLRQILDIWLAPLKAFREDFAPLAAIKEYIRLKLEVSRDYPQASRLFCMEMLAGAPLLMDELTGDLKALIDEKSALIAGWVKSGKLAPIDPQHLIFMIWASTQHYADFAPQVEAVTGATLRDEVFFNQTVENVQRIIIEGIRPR

RutR K52Q = biological target: T2, RutR K52Q (UniProt P0ACU2 1-212, K52Q); experiment: ITC; ITC: 100 mM potassium phosphate pH 6.4, 150 mM NaCl, 5 mM MgCl2, 2 mM b-ME, 20 or 25 C; SPR: 100 mM potassium phosphate pH 6.4, 300 mM NaCl, 0.05% Tween20, 25 C; EMSA: 20 mM Tris-HCl pH 7.5, 100 mM KCl, 2 mM DTT, 10% glycerol, 25 nM DNA, 30 C; conditions: protein: recombinant; tags: His6; chain copies: 2; blunt
T2 sequence: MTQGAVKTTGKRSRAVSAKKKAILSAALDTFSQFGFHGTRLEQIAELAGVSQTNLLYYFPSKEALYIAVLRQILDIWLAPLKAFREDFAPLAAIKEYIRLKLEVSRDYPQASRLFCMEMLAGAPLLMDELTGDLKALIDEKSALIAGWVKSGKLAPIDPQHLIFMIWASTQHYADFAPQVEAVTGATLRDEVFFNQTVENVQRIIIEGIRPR

RutR K52R = biological target: T3, RutR K52R (UniProt P0ACU2 1-212, K52R); experiment: as above; conditions: protein: recombinant; tags: His6; chain copies: 2; blunt
T3 sequence: T2 sequence with Q52R

RutR K7Q/K11Q = biological target: T4, RutR K7Q/K11Q (UniProt P0ACU2 1-212, K7Q;K11Q); experiment: as above; conditions: protein: recombinant; tags: His6; chain copies: 2; blunt
T4 sequence: T2 sequence with K7Q, K11Q, Q52K

RutR K7R/K11R = biological target: T5, RutR K7R/K11R (UniProt P0ACU2 1-212, K7R;K11R); experiment: as above; conditions: protein: recombinant; tags: His6; chain copies: 2; blunt
T5 sequence: T2 sequence with K7R, K11R, Q52K

RutR WT = biological target: T6, RutR WT (UniProt P0ACU2 1-212); experiment: as above; conditions: protein: recombinant; tags: His6; chain copies: 2; blunt
T6 sequence: T2 sequence with Q52K

RutR K11Q = biological target: T7, RutR K11Q (UniProt P0ACU2 1-212, K11Q); experiment: as above; conditions: protein: recombinant; tags: His6; chain copies: 2; blunt
T7 sequence: T2 sequence with K11Q, Q52K

RutR K7Q = biological target: T8, RutR K7Q (UniProt P0ACU2 1-212, K7Q); experiment: as above; conditions: protein: recombinant; tags: His6; chain copies: 2; blunt
T8 sequence: T2 sequence with K7Q, Q52K

[10] = biological target: the molecule itself; experiment: SEC; analytical size-exclusion chromatography of the purified RutR proteins; elution as dimer; column and buffer not given

Chain of RutR AcK7/11 K7AcK;K11AcK (Escherichia coli K12?) (P0ACU2 whole entry): as the sequence (P0ACU2 whole entry) above

Work on “GTTTTAATGTAAATTTTGACCATTTGGTCCACTTTTTTCTGCTCGT (double strand) [biotin-boxcarA]” yielded a binding signal (fold reduced affinity vs WT) [1] of 8.

Work on “GTTTTATGTGCAACTGTTTTGACCGTTTAGTCCACTTTTTACCAGATATTTTAG (double strand) [boxrutA]” yielded a Kd [2] of 58 nM, a Kd [3] of 95 nM and a Kd [4] of 32 nM. The Kd [5] was 251 nM, the Kd [6] was 94 nM and the Kd [7] was 72 nM.

In the case of “GTTTTATGTGCAACTGTTTTGACCGTTTAGTCCACTTTTTACCAGATATTTTAG (double strand) [biotin-boxrutA]”, the Kd [1] is reported as 76.2 nM and the Kd [8] is reported as 9.06 nM.

With “GTTTTAATGTAAATTTTGACCATTTGGTCCACTTTTTTCTGCTCGT (double strand) [boxcarA]” the Kd [9] was 1120 nM, the Kd [2] was 12 nM and the Kd [3] was 82 nM. For the same molecule, the Kd [4] was 19 nM, the Kd [5] was 300 nM and the Kd [6] was 73 nM. For the same molecule, the Kd [7] was 40 nM.

B1: boxrutA (dsDNA)
DNA 1: GTTTTATGTGCAACTGTTTTGACCGTTTAGTCCACTTTTTACCAGATATTTTAG
DNA 2: CTAAAATATCTGGTAAAAAGTGGACTAAACGGTCAAAACAGTTGCACATAAAAC
In the case of B1, the binding result (RutR Δ1-12) is reported as “binds”, the Kd (RutR K52Q) is reported as 2420 ± 961 nM and the Kd (RutR K52R) is reported as 42 ± 30 nM. The Kd (RutR K7Q/K11Q) was 540 ± 158 nM, the Kd (RutR K7R/K11R) was 47 ± 20 nM and the Kd (RutR WT) was 44 ± 21 nM. For the same molecule, the Kd (RutR K11Q) was 332 ± 179 nM and the Kd (RutR K7Q) was 57 ± 20 nM.

B2: boxcarA (dsDNA)
DNA 1: GTTTTAATGTAAATTTTGACCATTTGGTCCACTTTTTTCTGCTCGT
DNA 2: ACGAGCAGAAAAAAGTGGACCAAATGGTCAAAATTTACATTAAAAC
B2 was tested, and the binding result (RutR Δ1-12) was “binds”, the Kd (RutR K52Q) was 1220 ± 1130 nM and the Kd (RutR K52R) was 61 ± 36 nM. The Kd (RutR K7Q/K11Q) was 153 ± 43 nM, the Kd (RutR K7R/K11R) was 17 ± 1 nM and the Kd (RutR WT) was 28 ± 1 nM. It also gave a Kd (RutR K11Q) of 42 ± 16 nM and a Kd (RutR K7Q) of 26 ± 12 nM.

B3: non-acetylated RutR (pyrimidine utilization repressor) wild type (natural protein, E. coli, UniProt P0ACU2 1-212, looked up)
chain: T2 sequence with Q52K
notes: RutR, TetR-family transcriptional regulator of Escherichia coli; called full-length RutR WT; Expressed from a modified pRSFDuet-1 that carries a G to P mutation after the start Met of the tag region; No tag cleavage is described; also called RutR WT; source: E. coli BL21 (DE3), purified (Ni-NTA, SEC)
In the case of B3, the “stoichiometry N” value [10] is reported as 2.

B4: double-acetylated RutR AcK7/11 (natural protein, E. coli)
chain: T2 sequence with Q52K
modifications: acetyl-lysine at 7 and at 11
notes: RutR of Escherichia coli; rutR gene as in m1 with amber stop codons at K7 and K11 for acetyl-L-lysine; Same rutR construct as m1 apart from the amber codons; constructs are in Supplementary Data 4; also called K7- and K11-double-acetylated RutR; source: E. coli BL21 (DE3), genetic code expansion with an additional plasmid for the optimized MbtRNAopt, purified
In the case of B4, the “stoichiometry N” value [10] is reported as 2.

B5: RutR AcK7 (site-specifically K7-acetylated RutR) (natural protein, E. coli)
chain: T2 sequence with Q52K
modifications: acetyl-lysine at 7
notes: RutR of Escherichia coli; rutR gene as in m1 with an amber stop codon at K7 for acetyl-L-lysine; Same rutR construct as m1 apart from the amber codon; constructs are in Supplementary Data 4; source: E. coli BL21 (DE3), genetic code expansion (acetyl-L-lysine at an amber codon), purified
B5 was tested, and the “stoichiometry N” value [10] was 2.

B6: RutR AcK95 (site-specifically K95-acetylated RutR) (natural protein, E. coli)
chain: T2 sequence with Q52K
modifications: acetyl-lysine at 95
notes: RutR of Escherichia coli; rutR gene as in m1 with an amber stop codon at K95 for acetyl-L-lysine; Same rutR construct as m1 apart from the amber codon; constructs are in Supplementary Data 4; source: E. coli BL21 (DE3), genetic code expansion (acetyl-L-lysine at an amber codon), purified
B6 was tested, and the “stoichiometry N” value [10] was 2.

B7: RutR AcK52 (site-specifically K52-acetylated RutR) (natural protein, E. coli)
chain: T2 sequence with Q52K
modifications: acetyl-lysine at 52
notes: RutR of Escherichia coli; rutR gene as in m1 with an amber stop codon at K52 for acetyl-L-lysine; no electron density for the N-terminal 12 (chain A) or 11 (chain B) residues in the structure; Same rutR construct as m1 apart from the amber codon; constructs are in Supplementary Data 4; also called RutR AcK52•uracil; source: E. coli BL21 (DE3), genetic code expansion (acetyl-L-lysine at an amber …)
With B7 the “stoichiometry N” value [10] was 2.

B8: RutR AcK21 (site-specifically K21-acetylated RutR) (natural protein, E. coli)
chain: T2 sequence with Q52K
modifications: acetyl-lysine at 21
notes: RutR of Escherichia coli; rutR gene as in m1 with an amber stop codon at K21 for acetyl-L-lysine; Same rutR construct as m1 apart from the amber codon; constructs are in Supplementary Data 4; source: E. coli BL21 (DE3), genetic code expansion (acetyl-L-lysine at an amber codon), purified
For B8, the “stoichiometry N” value [10] was 2.

B9: RutR AcK11 (site-specifically K11-acetylated RutR) (natural protein, E. coli)
chain: T2 sequence with Q52K
modifications: acetyl-lysine at 11
notes: RutR of Escherichia coli; rutR gene as in m1 with an amber stop codon at K11 for acetyl-L-lysine; Same rutR construct as m1 apart from the amber codon; constructs are in Supplementary Data 4; source: E. coli BL21 (DE3), genetic code expansion (acetyl-L-lysine at an amber codon), purified
For B9, the “stoichiometry N” value [10] was 2.

B10: RutR AcK150 (site-specifically K150-acetylated RutR) (natural protein, E. coli)
chain: T2 sequence with Q52K
modifications: acetyl-lysine at 150
notes: RutR of Escherichia coli; rutR gene as in m1 with an amber stop codon at K150 for acetyl-L-lysine; Same rutR construct as m1 apart from the amber codon; constructs are in Supplementary Data 4; source: E. coli BL21 (DE3), genetic code expansion (acetyl-L-lysine at an amber codon), purified
B10 was tested, and the “stoichiometry N” value [10] was 2.

B11: RutR AcK62 (site-specifically K62-acetylated RutR) (natural protein, E. coli)
chain: T2 sequence with Q52K
modifications: acetyl-lysine at 62
notes: RutR of Escherichia coli; rutR gene as in m1 with an amber stop codon at K62 for acetyl-L-lysine; Same rutR construct as m1 apart from the amber codon; constructs are in Supplementary Data 4; source: E. coli BL21 (DE3), genetic code expansion (acetyl-L-lysine at an amber codon), purified
For B11, the “stoichiometry N” value [10] was 2.
